Results: article PMC4854415, “The Human Sodium-Glucose Cotransporter (hSGLT1) Is a Disulfide-Bridged Homodimer with a Re-Entrant C-Terminal Loop” (PLoS ONE, 2016)

Target: the molecule itself
Experiment: SDS-PAGE without reducing agent and western blot; total membrane preparation of oocytes expressing myc-tagged hSGLT1, 7.5 or 10% polyacrylamide gel, absence of β-Mercaptoethanol, detected with α-c-myc

B1: wt myc-tagged human sodium-glucose cotransporter 1 (hSGLT1) (natural protein, UniProt P13866 1-664, looked up)
chain: MDSSTWSPKTTAVTRPVETHELIRNAADISIIVIYFVVVMAVGLWAMFSTNRGTVGGFFLAGRSMVWWPIGASLFASNIGSGHFVGLAGTGAASGIAIGGFEWNALVLVVVLGWLFVPIYIKAGVVTMPEYLRKRFGGQRIQVYLSLLSLLLYIFTKISADIFSGAIFINLALGLNLYLAIFLLLAITALYTITGGLAAVIYTDTLQTVIMLVGSLILTGFAFHEVGGYDAFMEKYMKAIPTIVSDGNTTFQEKCYTPRADSFHIFRDPLTGDLPWPGFIFGMSILTLWYWCTDQVIVQRCLSAKNMSHVKGGCILCGYLKLMPMFIMVMPGMISRILYTEKIACVVPSECEKYCGTKVGCTNIAYPTLVVELMPNGLRGLMLSVMLASLMSSLTSIFNSASTLFTMDIYAKVRKRASEKELMIAGRLFILVLIGISIAWVPIVQSAQSGQLFDYIQSITSYLGPPIAAVFLLAIFWKRVNEPGAFWGLILGLLIGISRMITEFAYGTGSCMEPSNCPTIICGVHYLYFAIILFAISFITIVVISLLTKPIPDVHLYRLCWSLRNSKEERIDLDAEEENIQEGPKETIEIETQVPEKKKGIFRRAYDLFCGLEQHGAPKMTEEEEKAMKMKMTDTSEKPLWRTVLNVNGIILVTVAVFCHAYFA
notes: human sodium-glucose cotransporter 1 (hSGLT1), wild type; Dimer held by a disulfide bridge between the C355 residues of two molecules, by non-reducing western blot; also called wt hSGLT1; wtSGLT1; source: Xenopus laevis oocytes injected with mRNA, total membrane preparation
- stoichiometry N: 2
